Laboratory results reported in patent US20230012273A1 (Boehringer Ingelheim, published 2023).

B1: Antibody A10 (antibody, human IgG1, kappa, L234A L235A)
heavy: not shown
light: DIQMTQSPSSLSASVGDRVTITCRASQDINNYLAWFQQKPGKAPKSLIYTASSLHSGVPSKFSGSGSGTDFTLTISSLQPEDFATYYCQQYVSYPYTFGQGTKLEIKRTVAAPSVFIFPPSDEQLKSGTASVVCLLNNFYPREAKVQWKVDNALQSGNSQESVTEQDSKDSTYSLSSTLTLSKADYEKHKVYACEVTHQGLSSPVTKSFNRGEC
B2: Antibody A (antibody, human IgG1, kappa, L234A L235A)
heavy: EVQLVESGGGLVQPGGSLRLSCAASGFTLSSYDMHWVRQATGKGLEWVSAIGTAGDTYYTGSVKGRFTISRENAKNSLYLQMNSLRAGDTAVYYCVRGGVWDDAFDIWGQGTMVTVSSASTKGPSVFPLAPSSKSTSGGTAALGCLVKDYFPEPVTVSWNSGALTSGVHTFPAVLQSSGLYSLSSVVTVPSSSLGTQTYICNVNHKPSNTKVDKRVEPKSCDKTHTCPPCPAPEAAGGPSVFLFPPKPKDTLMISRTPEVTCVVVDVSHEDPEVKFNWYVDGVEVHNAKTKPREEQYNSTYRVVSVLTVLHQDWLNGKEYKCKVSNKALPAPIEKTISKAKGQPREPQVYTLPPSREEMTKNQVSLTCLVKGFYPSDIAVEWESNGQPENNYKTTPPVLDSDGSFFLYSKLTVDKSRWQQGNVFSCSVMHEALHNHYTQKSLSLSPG
light: B1 light
B3: Antibody A10 (antibody, human IgG1, kappa, L234A L235A)
heavy: not shown
light: B1 light
B4: Antibody E (antibody, human IgG1, kappa, L234A L235A)
heavy: not shown
light: DIVMTQSPLSLPVTPGEPASISCKSSQSLLYSNGYNYLDWYLQRPGQSPQLLIYLGSNRASGVPDRFSGSGSGTDFTLKISRVEAEDVGVFYCMQALQTPLTFGGGTKVEIKRTVAAPSVFIFPPSDEQLKSGTASVVCLLNNFYPREAKVQWKVDNALQSGNSQESVTEQDSKDSTYSLSSTLTLSKADYEKHKVYACEVTHQGLSSPVTKSFNRGEC
B5: Antibody E22 (antibody, human IgG1, kappa, L234A L235A, V domains shown)
VH: QVQLQESGPGLVKPSETLSLTCTVSGGSIRDYYWSWIRQPPGKGLEWIGFIYYNGRTFYQSSLKSRVTISLDTSKNQFSLKMTSVTAADTAVYYCARVRAYSGIGLDGTDVWGQGTTVTVSS
VL: DIVMTQSPLSLPVTPGEPASISCRSSQSLLYSTGYTYLDWYLQRPGQSPQLLIYGGSSRASGVPDRFSGSGSGTDFTLKISRVEAEDVGVFYCGQALQTPLTFGQGTKVEIKR
B6: Anti-SIRPα antibody KWAR23 (antibody, V domains shown)
VH: EVQLQQSGAELVKPGASVKLSCTASGFNIKDYYIHWVQQRTEQGLEWIGRIDPEDGETKYAPKFQDKATITADTSSNTAYLHLSSLTSEDTAVYYCARWGAYWGQGTLVTVSS
VL: QIVLTQSPAIMSASPGEKVTLTCSASSSVSSSYLYWYQQKPGSSPKLWIYSTSNLASGVPARFSGSGSGTSYSLTISSMEAEDAASYFCHQWSSYPRTFGAGTKLELK

Legend:
[1] = biological target: T1, full-length human SIRPγ (NP_061026.2) on cells (human, UniProt Q9P1W8 29-387); experiment: flow cytometry, Expi-CHO cells expressing full-length wild-type human SIRPγ
T1 construct: also called CHO-hSIRPγ; γ WT
T1 sequence (Q9P1W8 29-387): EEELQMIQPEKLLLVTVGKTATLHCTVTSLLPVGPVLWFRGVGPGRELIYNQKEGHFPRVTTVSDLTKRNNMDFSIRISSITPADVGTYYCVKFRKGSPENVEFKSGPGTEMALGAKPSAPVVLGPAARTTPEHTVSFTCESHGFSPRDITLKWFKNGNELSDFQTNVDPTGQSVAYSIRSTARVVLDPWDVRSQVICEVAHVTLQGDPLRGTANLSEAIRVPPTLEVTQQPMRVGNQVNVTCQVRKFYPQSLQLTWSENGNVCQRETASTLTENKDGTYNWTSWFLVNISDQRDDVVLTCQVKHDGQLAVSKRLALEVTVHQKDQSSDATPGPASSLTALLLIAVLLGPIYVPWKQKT
Experimental: […] These cells are blocked with donkey IgG and incubated on ice with increasing concentrations of antibodies for 60 minutes, washed and stained with AF647-conjugated donkey F(ab′)₂ anti-human IgG antibodies. Stained cells are washed, fixed, and analyzed by flow cytometry. Median fluorescent intensity is determined and used as a measure of antibody binding.

[2] = biological target: full-length human SIRPβ1 D→H on Expi-CHO cells (human, UniProt O00241 30-398); experiment: flow cytometry, Expi-CHO cells
Sequence of full-length human SIRPβ1 D→H on Expi-CHO cells (O00241 30-398 D130H): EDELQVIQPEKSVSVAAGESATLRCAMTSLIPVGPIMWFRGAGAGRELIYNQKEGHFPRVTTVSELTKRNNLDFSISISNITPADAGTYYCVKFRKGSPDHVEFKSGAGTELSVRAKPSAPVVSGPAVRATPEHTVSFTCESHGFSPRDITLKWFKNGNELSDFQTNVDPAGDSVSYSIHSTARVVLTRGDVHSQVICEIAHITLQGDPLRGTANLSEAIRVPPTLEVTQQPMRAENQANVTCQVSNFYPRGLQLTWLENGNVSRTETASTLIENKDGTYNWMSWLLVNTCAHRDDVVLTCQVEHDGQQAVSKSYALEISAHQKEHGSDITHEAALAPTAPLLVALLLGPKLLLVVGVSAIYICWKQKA
Experimental: (§1) These cells are blocked with donkey IgG and incubated on ice with increasing concentrations of antibodies for 60 minutes, washed and stained with AF647-conjugated donkey F(ab′)₂ anti-human IgG antibodies. Stained cells are washed, fixed, and analyzed by flow cytometry. Median fluorescent intensity is determined and used as a measure of antibody binding.

[3] = biological target: T2, human SIRPβ1 extracellular domain + His-tag (NP_006056.2) (human, UniProt O00241 30-371); experiment: SPR, Ab captured, ECD-His analyte
T2 construct: also called hSIRPβ1; HuSIRPβ1
T2 sequence (O00241 other isoform, or with tags, fused parts or gaps): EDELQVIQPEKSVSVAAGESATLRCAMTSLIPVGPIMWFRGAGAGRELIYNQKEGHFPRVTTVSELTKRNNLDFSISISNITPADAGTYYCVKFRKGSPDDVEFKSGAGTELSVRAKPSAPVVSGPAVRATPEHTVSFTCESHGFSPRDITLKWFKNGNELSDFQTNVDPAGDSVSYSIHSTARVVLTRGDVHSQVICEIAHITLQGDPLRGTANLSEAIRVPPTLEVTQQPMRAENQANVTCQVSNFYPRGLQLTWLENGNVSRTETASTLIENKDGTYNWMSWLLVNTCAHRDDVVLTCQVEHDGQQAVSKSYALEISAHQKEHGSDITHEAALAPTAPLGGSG
Outline: (§2)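 SPR; Ab capture surface, ethanolamine-deactivated (1M, 420 s, 10 μl/min). Analyte: SIRP ECD+His, 2-fold dilution series in 1×HBS-EP+. Inject 300 s @ 30 μl/min; dissoc. 600 s.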

[4] = biological target: T3, human SIRPγ extracellular domain + His-tag (NP_061026.2) (human, UniProt Q9P1W8 29-360); experiment: SPR, Ab captured, ECD-His analyte
T3 construct: also called hSIRPγ; HuSIRPγ
T3 sequence (Q9P1W8 29-360): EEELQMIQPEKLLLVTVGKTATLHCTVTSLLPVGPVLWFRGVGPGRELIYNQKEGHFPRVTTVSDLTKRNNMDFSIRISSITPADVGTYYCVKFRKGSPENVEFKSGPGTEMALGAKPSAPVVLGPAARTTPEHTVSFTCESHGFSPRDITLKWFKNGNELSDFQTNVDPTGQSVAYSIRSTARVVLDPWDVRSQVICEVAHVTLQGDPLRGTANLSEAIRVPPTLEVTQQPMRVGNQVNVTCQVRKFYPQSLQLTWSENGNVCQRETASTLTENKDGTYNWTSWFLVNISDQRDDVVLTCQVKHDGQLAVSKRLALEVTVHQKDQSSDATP
Outline: as §2

[5] = biological target: T4, human SIRPβL/SIRPβ1v3 extracellular domain + His-tag (NP_001129316.1) (human, UniProt Q5TFQ8 30-371); experiment: SPR, Ab captured, ECD-His analyte
T4 construct: also called hSIRPβ1v3; HuSIRPβ1v3
T4 sequence (Q5TFQ8 other isoform, or with tags, fused parts or gaps): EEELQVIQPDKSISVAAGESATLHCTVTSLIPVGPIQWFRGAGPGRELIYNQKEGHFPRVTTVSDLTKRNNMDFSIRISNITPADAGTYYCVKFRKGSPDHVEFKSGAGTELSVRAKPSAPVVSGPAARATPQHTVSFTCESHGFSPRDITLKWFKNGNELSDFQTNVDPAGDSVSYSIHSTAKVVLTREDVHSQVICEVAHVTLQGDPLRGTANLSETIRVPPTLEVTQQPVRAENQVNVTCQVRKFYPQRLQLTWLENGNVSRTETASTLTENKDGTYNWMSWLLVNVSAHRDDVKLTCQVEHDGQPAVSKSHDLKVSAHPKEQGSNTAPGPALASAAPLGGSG
Outline: as §2

[6] = biological target: T5, cynomolgus SIRPγ extracellular domain + His-tag (XP_005568591) (cynomolgus monkey, UniProt Q9P1W8 29-359 (human entry)); experiment: SPR, Ab captured, ECD-His analyte
T5 construct: also called Cyno SIRPγ; cynoSIRPγ
T5 chain: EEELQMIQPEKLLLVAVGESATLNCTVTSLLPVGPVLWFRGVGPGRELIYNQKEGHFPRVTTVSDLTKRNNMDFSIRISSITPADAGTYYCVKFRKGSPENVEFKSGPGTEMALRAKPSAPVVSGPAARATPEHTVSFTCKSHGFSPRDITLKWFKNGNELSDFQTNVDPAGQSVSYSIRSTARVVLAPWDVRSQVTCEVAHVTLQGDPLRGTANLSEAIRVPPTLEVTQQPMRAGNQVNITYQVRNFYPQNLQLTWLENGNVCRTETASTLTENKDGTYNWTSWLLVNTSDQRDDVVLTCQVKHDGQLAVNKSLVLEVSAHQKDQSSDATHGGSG
Outline: as §2

[7] = biological target: T6, full-length human SIRPβL (NP_001129316.1) on cells (human, UniProt Q5TFQ8 30-398); experiment: flow cytometry, U937 SIRPα KO cells
T6 construct: on U937 SIRPα KO cells and Expi-CHO cells; also called βL WT; SIRPβ1v3
Outline: (§3)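 Binding read as median fluorescence intensity after AF647 anti-human IgG staining and fixation. Antibodies were titrated onto donkey-IgG-blocked U937^{SIRPα KO} transfectants bearing SIRPβ1 or SIRPβL for 60 minutes on ice.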
Target sequence in this assay (Q5TFQ8 30-398): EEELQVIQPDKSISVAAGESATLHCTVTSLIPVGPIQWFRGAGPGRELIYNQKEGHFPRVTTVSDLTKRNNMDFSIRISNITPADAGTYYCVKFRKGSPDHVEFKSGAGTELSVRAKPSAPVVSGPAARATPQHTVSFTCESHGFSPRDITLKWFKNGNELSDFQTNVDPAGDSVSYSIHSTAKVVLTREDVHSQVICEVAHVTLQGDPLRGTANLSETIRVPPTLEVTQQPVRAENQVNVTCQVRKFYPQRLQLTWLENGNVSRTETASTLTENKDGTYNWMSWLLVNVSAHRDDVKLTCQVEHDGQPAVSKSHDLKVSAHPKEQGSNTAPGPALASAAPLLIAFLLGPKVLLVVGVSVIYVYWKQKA

[8] = biological target: T7, full-length human SIRPγ N→D on Expi-CHO cells (human, UniProt Q9P1W8 29-387); experiment: flow cytometry, Expi-CHO cells expressing full-length human SIRPγ N→D
T7 construct: the entry already carries the change (PENV to PEDV)
T7 sequence (Q9P1W8 29-387 N129D): as the sequence (Q9P1W8 29-387) above, with N101D counted along it
Experimental: as §1, with “Expi-CHO parental cells are transduced with lentiviruses containing either full-length wild-type human SIRPγ ([…]) or full-length human SIRPγ with amino acid point mutations (Table 64) and sorted to achieve matching expression levels. These” for “These”

[9] = biological target: T8, full-length human SIRPβL (NP_001129316.1) on cells (human, UniProt Q5TFQ8 30-398); experiment: flow cytometry, U937 SIRPα-KO transfectants
T8 construct: one molecule for U937 SIRPα-KO transfectants (NP_001129316.1) and Expi-CHO transfectants (Q5TFQ8); also called SIRPβ1v3; βL WT
Outline: as §3
Target sequence in this assay (Q5TFQ8 30-398): as the sequence (Q5TFQ8 30-398) above

[10] = biological target: T9, full-length human SIRPγ EN→DD on Expi-CHO cells (human, UniProt Q9P1W8 29-387); experiment: flow cytometry, Expi-CHO cells expressing full-length human SIRPγ EN→DD
T9 construct: the entry already carries the change (PENV to PDDV)
T9 chain: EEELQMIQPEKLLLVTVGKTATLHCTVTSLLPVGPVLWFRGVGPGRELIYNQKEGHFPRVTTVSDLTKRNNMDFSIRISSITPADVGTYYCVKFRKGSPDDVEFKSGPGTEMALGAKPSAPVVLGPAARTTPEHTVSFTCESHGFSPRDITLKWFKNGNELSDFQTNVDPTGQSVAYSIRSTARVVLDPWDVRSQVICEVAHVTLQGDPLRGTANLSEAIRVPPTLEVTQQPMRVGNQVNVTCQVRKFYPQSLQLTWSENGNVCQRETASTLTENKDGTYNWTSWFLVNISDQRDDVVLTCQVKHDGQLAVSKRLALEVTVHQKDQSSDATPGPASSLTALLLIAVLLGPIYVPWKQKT
Experimental: as §1, with “Expi-CHO parental cells are transduced with lentiviruses containing either full-length wild-type human SIRPγ ([…]) or full-length human SIRPγ with amino acid point mutations (Table 64) and sorted to achieve matching expression levels. These” for “These”

| Binder | binding result [1] | binding result [2] | Kd [3] [pM] | binding result [4] | binding result [5] | binding result [6] | binding result [7] | binding result [8] | EC50 [9] [pM] | binding result [10] |
| --- | --- | --- | --- | --- | --- | --- | --- | --- | --- | --- |
| B1 | no binding (tested: about 67 nM) |  |  |  |  |  |  |  |  |  |
| B2 |  | no binding | 64800 | no binding (tested: 1000 nM) | no binding (tested: 100 nM) | no binding (tested: 1000 nM) | no binding |  |  |  |
| B3 |  | no binding | 69000 | no binding (tested: 1000 nM) | no binding (tested: 100 nM) | no binding (tested: 1000 nM) | no binding |  |  |  |
| B4 |  |  |  |  |  |  |  | no binding (tested: about 67 nM) | 300 | no binding (tested: about 67 nM) |
| B5 | no binding (tested: about 67 nM) |  |  |  |  |  |  | no binding (tested: about 67 nM) | 600 | no binding (tested: about 67 nM) |
| B6 |  |  |  |  |  |  |  |  | 200 |  |
